Test results taken from the Human Domainome abundance scans (Beltran et al. 2025).

B1: Homeobox protein SIX3, residues 212 to 262; numbered along this chain, O95343 (parent)
chain: CFKERTRSLLREWYLQDPYPNPSKKRELAQATGLTPTQVGNWFKNRRQRDR
B2: Zinc finger protein ZIC 2, residues 250 to 295; numbered along this chain, O95409 (parent)
chain: QCIKQELICKWIDPEQLSNPKKSCNKTFSTMHELVTHVSVEHVGGP

Variants of: B1
Assay: abundance fitness (aPCA) (normalised: wild type 0, dead -1); higher = more abundant; growth selection in yeast, the domain comes from the species named
Settings: Homo sapiens

Abundance fitness: each site, then its substitutions
R47: Q -0.473 | F -0.548 | M -0.975 | H -0.617 | N -0.552 | W -0.641 | T -0.84 | G -0.898 | I -0.613 | V -0.586 | A -0.465 | C -0.804 | D -0.654 | K -0.591 | P -0.532 | S -0.723 | Y -0.945
R49: H -0.371 | Q 0.018 | W -0.462 | Y -0.074 | G -0.373 | K 0.025 | E 0 | F -0.373 | P -0.844 | M -0.247 | I -0.216 | A -0.222 | C -0.539 | L -0.388 | V -0.153 | S -0.279 | N -0.221 | T -0.18 | D -0.033
D50: Q -0.276 | T -0.582 | C -0.678 | Y -0.6 | W -1.17 | S -0.491 | N -0.747 | G -0.609 | M -0.799 | H -0.515 | R -1.08 | A -0.579 | L -0.64 | E 0.189 | I -0.737 | V -0.699
K44: C -0.807 | Q 0.007 | Y -0.496 | E -0.086 | G -0.72 | L -0.407 | A -0.286 | R -0.115 | V -0.48 | W -0.623 | T -0.376 | S -0.192 | F -0.452 | M -0.505 | I -0.629 | N 0.017 | H -0.354 | D -0.356
Q48: F -0.46 | T -0.242 | K 0.177 | H -0.042 | W -0.117 | Y -0.055 | C -0.147 | N -0.166 | V -0.545 | L -0.225 | D -0.37 | A 0.028 | E -0.267 | S -0.124 | P -0.799 | R 0.397 | M -0.431
R46: W -0.817 | I -0.748 | P -0.611 | A -0.306 | F -0.63 | M -0.182 | E -0.167 | Q -0.045 | K 0.144 | H -0.269 | D -0.67 | Y -0.504 | S -0.326 | G -0.937 | N -0.456 | T -0.117 | V -0.635 | L -0.531 | C -0.554
N45: V -0.493 | T -0.255 | W -0.655 | G -0.58 | K -0.368 | L -0.28 | M -0.355 | S -0.283 | I -0.429 | P -0.967 | A -0.452 | E -0.192 | Y -0.725 | H -0.209 | C -0.396 | Q -0.263 | R -0.063
F43: T -0.951 | V -1 | R -0.774 | Y -0.689 | P -0.941 | W -0.915 | S -0.837 | Q -0.861
R51: G -0.375 | V -0.441 | N -0.267 | E -0.155 | W -0.309 | A -0.031 | F -0.18 | D 0.246

Variants of: B2
Assay: as above
Settings: Homo sapiens

Abundance fitness: each site, then its substitutions
I12: K -0.085 | D -0.064 | L -0.551 | H 0.098 | A -0.363 | G -0.278 | C 0.013 | E 0.111 | F -0.179
Q5: K 0.05 | H -0.382 | E 0.242 | T -0.22 | N 0.018 | L -0.661 | W -0.777 | M -0.688 | F -0.612 | V -0.779 | Y -0.641 | I -0.906 | R -0.014 | S -0.24 | C -0.733 | G -0.283 | P 0.037 | A -0.071 | D 0.366
C2: V 0.419 | K 0.194 | S 0.047 | T 0.126 | Q 0.127 | P -0.136 | E 0.123 | H -0.126 | I 0.605 | F -0.182 | M 0.612 | R -0.129 | N -0.176 | D 0.108 | L 0.73 | G 0.259
K10: A -0.193 | L -0.248 | T 0.33 | P -0.45 | H 0.236 | G -0.138 | V -0.4 | I -0.484 | E 0.157 | N 0.394 | Y 0.165 | W -0.277 | D 0.018 | Q 0.205 | F -0.506 | C -0.19
E6: R -0.312 | G -0.198 | H -0.687 | F -1.04 | I -1.62 | Y -0.653 | Q -0.207 | T -0.748 | V -0.778 | K -0.687 | A -0.351 | C -0.632 | S 0.009 | L -0.974 | N -0.264 | W -0.767
I8: Y -0.245 | L -0.056 | T 0.041 | C -0.177 | K 0.4 | Q 0.171 | N 0.586 | S 0.02 | V 0.086 | D 0.384 | W -0.31 | G 0.036 | R 0.241 | M 0.031 | H 0.033
I3: T 0.052 | R -0.61 | S -0.526 | V -0.248 | E -0.352 | P -0.586 | Q 0.224 | M 0.174 | W -0.376 | H -0.518 | A -0.568 | D -0.541 | C -0.673 | L -0.254 | Y -0.151 | F -0.57 | N -0.602 | K -0.652
Q1: L -0.356 | M -0.131 | H -0.101 | G -0.22 | P -0.915 | T 0.146 | D 0.21 | C -0.274 | E -0.077 | K -0.455 | A 0.373 | W -0.321 | V -0.349 | Y -0.705 | N 0.294 | S 0.503
W11: L -0.079 | V -0.115 | K 0.216 | E 0.117 | S -0.212 | Y 0.005 | M -0.146 | F 0.187 | A -0.223 | T -0.413 | C -0.712 | H 0.002 | P -0.348 | R 0.037 | N -0.216 | Q 0.241 | G -0.089 | D -0.647
C9: F -0.975 | D -0.758 | K -0.473 | I -0.96 | L -0.863 | P -0.776 | H -1.03 | E -0.578 | W -1.03 | M -0.822 | Y -0.829 | S -0.78 | A -0.651 | V -0.841 | G -0.714 | Q -0.675
L7: Y -0.152 | A 0.097 | V 0.08 | C -0.196 | H 0.306 | P 0.194 | K 0.309 | G -0.425 | D -0.375 | M 0.191 | E 0.17 | F -0.322 | T 0.001 | W -0.223 | I -0.103 | R 0.044 | N 0.22 | Q 0.401
K4: D 0.261 | Q -0.458 | M -0.105 | I -0.734 | V -0.513 | C -0.411 | H -0.816 | T -0.304 | L -0.184 | G -0.309 | Y -0.671 | A -0.187 | W -1.05 | F -0.645 | E 0.088 | N -0.085 | S -0.204 | P -0.236
